Measurements reported in patent publication US20170174777A1 (PROTHENA BIOSCIENCE, published 2017).

Assays:
[1] = target: T1, wild-type human alpha-synuclein (human, UniProt P37840 1-140); assay: ELISA on alpha-synuclein, OD against ng/mL of antibody
[2] = target: T1, wild-type human alpha-synuclein; assay: SPR (Biacore), antibody captured on anti-human IgG chip, alpha-synuclein flowed over, 1:1 model global fit
Method: An anti-human IgG CMS Biacore chip was prepared following the protocol supplied by GE Healthcare.
Data were collected and double reference subtracted to account for drift and a small amount of nonspecific binding. The data were analyzed using Biacore evaluation software using a 1:1 model and a global fit.

Row | binding result [1] | Kd [2] | Binder
1 | no binding (tested: 1000 ng/mL) | – | humanized 5C1 antibody version H1L1 (antibody, V domains shown, Only variable regions are tied to this version) VH: QVQLVQSGAELKKPGSSVKVSCKASGYTFTNYWMNWVRQAPGQGLEWIGATNPNNGYTDYNQRFKDRATLTADKSTNTAYMELSSLRSEDTAVYYCARGGHLAYWGQGTLVTVSS VL: DVVMTQSPLSLSVSPGEPASISCRSSQSLFHSKGNTYLHWYLQKPGQSPKLLINRVSNRFSGVPDRFSGSGSGTDFTLKISRVEAEDVGVYFCSQSAHVPWTFGGGTKVEIK
2 | – | 1060 nM | humanized 5C1 antibody version H5L4 (antibody, V domains shown, Only variable regions are tied to this version; also called h5C1_H5L4) VH: QVQLVQSGAELKKPGSSVKVSCKASGYTFTNYWMNWVRQAPGQGLEWIGATNPNNGYTDYNQRFKDRVTITADKSTNTAYMELSSLRSEDTAVYYCASGGHLAYWGQGTLVTVSS VL: DIVMTQSPLSLSVSPGEPASISCRSSQSLFHSKGNTYLHWYLQKPGQSPQLLIYRVSNRFSGVPDRFSGSGSGTDFTLKISRVEAEDVGVYYCSQSAHVPWTFGGGTKVEIK

Continued, binder first:

Row | Binder | binding result [1] | Kd [2]
3 | humanized 5C1 antibody version H3L4 (antibody, V domains shown, Only variable regions are tied to this version; also called h5C1_H3L4) VH: QVQLVQSGAELKKPGSSVKVSCKASGYTFTNYWMNWVRQAPGQGLEWIGATNPNNGYTDYNQRFKDRATLTADKSTNTAYMELSSLRSEDTAVYFCASGGHLAYWGQGTLVTVSS VL: DIVMTQSPLSLSVSPGEPASISCRSSQSLFHSKGNTYLHWYLQKPGQSPQLLIYRVSNRFSGVPDRFSGSGSGTDFTLKISRVEAEDVGVYYCSQSAHVPWTFGGGTKVEIK | – | 1240 nM
4 | humanized 5C1 antibody version H4L4 (antibody, V domains shown, Only variable regions are tied to this version; also called h5C1_H4L4) VH: QVQLVQSGAELKKPGSSVKVSCKASGYTFTNYWMNWVRQAPGQGLEWIGATNPNNGYTDYNQRFKDRATLTADKSTNTAYMELSSLRSEDTAVYYCASGGHLAYWGQGTLVTVSS VL: DIVMTQSPLSLSVSPGEPASISCRSSQSLFHSKGNTYLHWYLQKPGQSPQLLIYRVSNRFSGVPDRFSGSGSGTDFTLKISRVEAEDVGVYYCSQSAHVPWTFGGGTKVEIK | – | 601 nM
